Source: patent publication US20130243722A1 (NEUMEDICINES, published 2013)

Target: human IL-12 receptor on human CD14- PBMC (human, UniProt Q99665 24-862)
Test: cell-based or functional assay

Sequence of human IL-12 receptor on human CD14- PBMC (Q99665 24-862): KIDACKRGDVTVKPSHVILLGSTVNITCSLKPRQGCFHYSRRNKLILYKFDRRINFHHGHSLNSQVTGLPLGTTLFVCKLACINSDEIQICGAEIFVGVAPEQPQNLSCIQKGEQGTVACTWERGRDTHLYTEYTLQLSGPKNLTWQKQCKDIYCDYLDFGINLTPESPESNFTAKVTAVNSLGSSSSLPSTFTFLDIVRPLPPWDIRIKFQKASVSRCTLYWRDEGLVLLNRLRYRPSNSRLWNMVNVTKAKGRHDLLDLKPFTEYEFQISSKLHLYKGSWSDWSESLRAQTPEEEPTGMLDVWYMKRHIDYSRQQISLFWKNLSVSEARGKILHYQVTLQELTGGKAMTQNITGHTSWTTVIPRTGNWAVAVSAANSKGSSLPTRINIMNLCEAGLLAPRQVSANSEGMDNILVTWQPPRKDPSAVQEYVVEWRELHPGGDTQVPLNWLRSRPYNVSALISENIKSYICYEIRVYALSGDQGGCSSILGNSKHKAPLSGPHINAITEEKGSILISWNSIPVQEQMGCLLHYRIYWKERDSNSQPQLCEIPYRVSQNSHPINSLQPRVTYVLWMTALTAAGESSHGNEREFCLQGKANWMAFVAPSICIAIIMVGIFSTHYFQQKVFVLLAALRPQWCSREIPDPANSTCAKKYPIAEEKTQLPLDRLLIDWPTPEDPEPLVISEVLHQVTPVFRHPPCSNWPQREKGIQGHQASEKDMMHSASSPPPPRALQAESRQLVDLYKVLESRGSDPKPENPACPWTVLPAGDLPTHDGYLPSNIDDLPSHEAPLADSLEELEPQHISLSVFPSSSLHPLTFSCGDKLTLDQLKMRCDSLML

- EC50 for stimulating IFN-γ secretion from CD14- PBMC (ELISA, 16 hours): 2.51 pM
B1: recombinant human IL-12 (ligand)
chain 1: RNLPVATPDPGMFPCLHHSQNLLRAVSNMLQKARQTLEFYPCTSEEIDHEDITKDKTSTVEACLPLELTKNESCLNSRETSFITNGSCLASRKTSFMMALCLSSIYEDLKMYQVEFKTMNAKLLMDPKRQIFLDQNMLAVIDELMQALNFNSETVPQKSSLEEPDFYKTKIKLCILLHAFRIRAVTIDRVMSYLNAS
chain 2: IWELKKDVYVVELDWYPDAPGEMVVLTCDTPEEDGITWTLDQSSEVLGSGKTLTIQVKEFGDAGQYTCHKGGEVLSHSLLLLHKKEDGIWSTDILKDQKEPKNKTFLRCEAKNYSGRFTCWWLTTISTDLTFSVKSSRGSSDPQGVTCGAATLSAERVRGDNKEYEYSVECQEDSACPAAEESLPIEVMVDAVHKLKYENYTSSFFIRDIIKPDPPKNLQLKPLKNSRQVEVSWEYPDTWSTPHSYFSLTFCVQVQGKSKREKKDRVFTDKTSATVICRKNASISVRAQDRYYSSSWSEWASVPCS
